# Data from US20220064648, “NOVEL X-[…] FOR THE USE IN DETECTION OF SNAP25” (Galderma Holding S.A., published 2022).
# Changes are numbered by the printed parent chain.
# T1: SNAP25 Peptide 1 (PEP1) (Homo sapiens, UniProt P60880 SEQ:1-35)
# T1 chain: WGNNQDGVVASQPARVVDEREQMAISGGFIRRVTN
# T2: SNAP25 Peptide 3 (PEP3; only a fragment of it is a SNAP25 subsequence) (Homo sapiens, UniProt P60880 SEQ:1-33)
# T2 chain: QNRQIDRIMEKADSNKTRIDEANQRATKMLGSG
# B1: PEP 4.06 (ssDNA)
# DNA: TTTTTAAGCCCACGAGAGTTCGATAGTCACAGATTGGCACCGTCGTGCCATG
# B2: PEP 1.15 (ssDNA)
# DNA: TTTTTAAGCCCACCTCTCTGTGGGAGACACAGTTATTGCAGGTGGGCCCATG
# modifications: W indole, X amine, Y phenol modified dU [15,19,34 (Y phenol dU); 17,36 (W indole dU)]
# B3: PEP 1.12 (ssDNA)
# DNA: TTTTTAAGCCCACAAAAGTTCGATCAGCACAGGTCGCCAAAGTCGTGCCATG
# modifications: W indole, X amine, Y phenol modified dU [19,24 (W indole dU); 20,34,46 (Y phenol dU); 43 (X amine dU)]
# B4: PEP 4.14 (ssDNA)
# DNA: B3 DNA with A23G, T24G, C38T, A39G, A41G
# B5: PEP 4.04 (ssDNA)
# DNA: TTTTTAAGCCCACGATCCTGTGCTTCGCACAGCTCGAGCTAGTGGGCCCATG
# B6: PEP 1.20 (ssDNA)
# DNA: TTTTTAACACGACGAACCTGTGCTCAACACAGAACATCACAGTGGGCCCATG
# modifications: W indole, X amine, Y phenol modified dU [19,24]
# B7: PEP 1.14 (ssDNA)
# DNA: TTTTTAAGCCCACCTGACTGTGGTGGGCACAGTTCGCCATCGTGGGCCCATG
# modifications: W indole, X amine, Y phenol modified dU [15,19,34 (Y phenol dU); 24,40 (W indole dU)]
# B8: PEP 1.24 (ssDNA)
# DNA: TTTTTAACACGACCGCCCTGTGGGCAACACAGGGATCTGCAGTCGTGCCATG
# modifications: W indole, X amine, Y phenol modified dU [19,36,38,43,46]
# B9: PEP 4.11 (ssDNA)
# DNA: TTTTTAAGCCCACCCGAGTTCGTCCAGCGAACCACGCGCGTGTCGTGCCATG
# B10: PEP 1.06 (ssDNA)
# DNA: TTTTTAAGCCCACCTCAGTTCGCTCATCGAACGACGATGCTGTGGGCCCATG
# modifications: W indole, X amine, Y phenol modified dU [15,20 (Y phenol dU); 19,24,38 (W indole dU); 27 (X amine dU)]
# B11: PEP 4.21 (ssDNA)
# DNA: TTTTTAAGCCCACGGGGCTGTGAGCAACGAACATTGGCACAGTCGTGCCATG
# B12: PEP 1.11 (ssDNA)
# DNA: TTTTTAACACGACGCCAGTTCGAAGGTCACAGTTATTTGGCGTCGTGCCATG
# modifications: W indole, X amine, Y phenol modified dU [19,36,38 (W indole dU); 20,34,46 (Y phenol dU); 27,43 (X amine dU)]
# B13: PEP 3.23 (ssDNA)
# DNA: TTTTTAAGCCCACCTCACTGTGCAAGTCACAGGTCGGCACCGTGGGCCCATG
# modifications: W indole, X amine, Y phenol modified dU [15, 19, 34 (phenol dU), 27 (amine dU)]
# B14: PEP 4.01 (ssDNA)
# DNA: TTTTTAAGCCCACAAGCGTTCGGCTCTCACAGATCGTTGACGTGGGCCCATG
# B15: PEP 4.19 (ssDNA)
# DNA: B14 DNA with C30T
# B16: PEP 1.19 (ssDNA)
# DNA: TTTTTAACACGACATAGCTGTGACAGGCACAGGTCATGGGAGTCGTGCCATG
# modifications: W indole, X amine, Y phenol modified dU [15,19,34,43,46]
# B17: PEP 4.10 (ssDNA)
# DNA: TTTTTAAGCCCACAAGACTGTGCGTCGCACAGATTGGCATCGTCGTGCCATG
# B18: PEP 1.21 (ssDNA)
# DNA: TTTTTAAGCCCACCGGTCTGTGGTTCCCACAGTGCATGCGAGTGGGCCCATG
# modifications: W indole, X amine, Y phenol modified dU [17,19,24,25]
# B19: PEP 1.04 (ssDNA)
# DNA: TTTTTAACACGACGCTCCTGTGACAGCCGAACATCATTGGTGTCGTGCCATG
# modifications: W indole, X amine, Y phenol modified dU [16,19,34,38,43,46]
# B20: PEP 1.08 (ssDNA)
# DNA: TTTTTAACACGACCCCGGTTCGACTCCCACAGAGCGGGGGTGTCGTGCCATG
# modifications: W indole, X amine, Y phenol modified dU [19 (W indole dU); 20,46 (Y phenol dU); 25,43 (X amine dU)]
# B21: PEP 1.01 (ssDNA)
# DNA: TTTTTAACACGACGCGACTGTGAGAGGCACAGTTTGGGGGCGTGGGCCCATG
# modifications: W indole, X amine, Y phenol modified dU [19,34,35]
# B22: PEP 4.15 (ssDNA)
# DNA: B21 DNA with C15T
# B23: PEP 1.18 (ssDNA)
# DNA: TTTTTAACACGACCACCCTGTGCAAGGCGAACTCCGTCAAAGTGGGCCCATG
# modifications: W indole, X amine, Y phenol modified dU [19]
# B24: PEP 4.17 (ssDNA)
# DNA: TTTTTAAGCCCACGCCAGTTCGGTCAACGAACTACGGTGATGTGGGCCCATG
# B25: PEP 4.12 (ssDNA)
# DNA: TTTTTAACACGACAGCCCTGTGCAGGCCGAACGGCGTTGATGTCGTGCCATG
# B26: PEP 4.07 (ssDNA)
# DNA: TTTTTAAGCCCACTCGTGTTCGCACACCGAACCACAAGCTAGTGGGCCCATG
# B27: PEP 1.03 (ssDNA)
# DNA: TTTTTAACACGACGGGGGTTCGGGCAGCGAACAGATGGGCGGTGGGCCCATG
# modifications: W indole, X amine, Y phenol modified dU [19,20,36]
# B28: PEP 1.10 (ssDNA)
# DNA: TTTTTAACACGACGGGCGTTCGCTGGTCGAACACCAATGCTGTGGGCCCATG
# modifications: W indole, X amine, Y phenol modified dU [19,24,38 (W indole dU); 20 (Y phenol dU); 27 (X amine dU)]
# B29: PEP 4.05 (ssDNA)
# DNA: TTTTTAAGCCCACATAAGTTCGCAAGTCACAGCGATGTGATGTCGTGCCATG
# B30: PEP 1.17 (ssDNA)
# DNA: TTTTTAACACGACGGCGGTTCGCCTCCCGAACGTTGTTGGAGTCGTGCCATG
# modifications: W indole, X amine, Y phenol modified dU [19,38 (W indole dU); 20,34,35,46 (Y phenol dU); 25,43 (X amine dU)]
# B31: PEP 4.08 (ssDNA)
# DNA: TTTTTAACACGACCATTCTGTGCCAGCCGAACTCCGTGCTGGTGGGCCCATG
# B32: PEP 1.07 (ssDNA)
# DNA: TTTTTAACACGACTCAACTGTGATTCCCACAGACTGGGCTCGTGGGCCCATG
# modifications: W indole, X amine, Y phenol modified dU [14,25 (X amine dU); 19,35 (Y phenol dU); 24,40 (W indole dU)]
# B33: PEP 4.13 (ssDNA)
# DNA: TTTTTAAGCCCACGGCCGTTCGGCCACCACAGTGTGGCAGCGTCGTGCCATG
# B34: PEP 1.02 (ssDNA)
# DNA: TTTTTAACACGACCATCCTGTGCCTCACGAACTCATTGCCCGTCGTGCCATG
# modifications: W indole, X amine, Y phenol modified dU [16,19,25,36,43,46]
# B35: PEP 3.22 (ssDNA)
# DNA: TTTTTAACACGACATCACTGTGGAAGACACAGGACGTGCGTGTCGTGCCATG
# modifications: W indole, X amine, Y phenol modified dU [15, 19, 46 (phenol dU), 43 (amine dU)]
# B36: PEP 4.22 (ssDNA)
# DNA: TTTTTAAGCCCACGGTGCTGTGGAAGCCACAGTACAATGGAGTGGGCCCATG
# B37: PEP 4.18 (ssDNA)
# DNA: TTTTTAACACGACTATTCTGTGAGTCTCGAACTGCGACAACGTGGGCCCATG
# B38: PEP 3.24 (ssDNA)
# DNA: TTTTTAAGCCCACCAGGGTTCGGGAGCCGAACGCCAGCACTGTCGTGCCATG
# modifications: W indole, X amine, Y phenol modified dU [19,20,43,46]
# B39: PEP 1.05 (ssDNA)
# DNA: TTTTTAAGCCCACCAAGCTGTGGCGGGCACAGGGCAGCATCGTCGTGCCATG
# modifications: W indole, X amine, Y phenol modified dU [19,40,43,46]
# B40: PEP 4.03 (ssDNA)
# DNA: TTTTTAACACGACAGGGGTTCGTAGGACACAGGTTGATGTTGTGGGCCCATG
# B41: PEP 1.16 (ssDNA)
# DNA: TTTTTAACACGACGGGCCTGTGAACACCGAACTGATGGGTCGTGGGCCCATG
# modifications: W indole, X amine, Y phenol modified dU [19 (Y phenol dU); 36,40 (W indole dU)]
# B42: PEP 4.02 (ssDNA)
# DNA: TTTTTAAGCCCACTACTGTTCGAAGGGCACAGTCCAGGCCGGTGGGCCCATG
# B43: PEP 4.16 (ssDNA)
# DNA: TTTTTAACACGACAGACCTGTGATGGTCGAACTCCATGCATGTGGGCCCATG
# B44: PEP 4.09 (ssDNA)
# DNA: TTTTTAACACGACATATGTTCGACGGACACAGTGTGTGGCGGTCGTGCCATG
# B45: PEP 1.22 (ssDNA)
# DNA: TTTTTAACACGACTTGGGTTCGGAAGGCGAACCGCAGCAATGTGGGCCCATG
# modifications: W indole, X amine, Y phenol modified dU [14,15,19,20]
# B46: PEP 4.20 (ssDNA)
# DNA: TTTTTAAGCCCACACGTGTTCGGATCGCACAGTTATTGGCAGTCGTGCCATG
# B47: PEP 1.09 (ssDNA)
# DNA: TTTTTAACACGACTTATCTGTGTCAGTCGAACGTCGCGGAGGTGGGCCCATG
# modifications: W indole, X amine, Y phenol modified dU [14,27 (X amine dU); 15,19,34 (Y phenol dU); 17,23 (W indole dU)]
# B48: PEP 1.23 (ssDNA)
# DNA: TTTTTAAGCCCACTTCACTGTGGCTCGCACAGGCCGATGGGGTCGTGCCATG
# modifications: W indole, X amine, Y phenol modified dU [14,15,19,25,38,43,46]
# Columns and labels:
# Assay in all cases: ELONA
# [1] = target: SNAP25 Peptide 4 (PEP4, BoNT/A cleavage site region) (Homo sapiens, UniProt P60880 SEQ:1-24); settings: label: biotin
# [2] = target: T1, SNAP25 Peptide 1 (PEP1)
# Text: (§1) The data in Table 2 was collected by running direct ELISA assays on the 96 X-aptamers, elucidating their ability to bind SNAP25, SNAP25 fragments (PEP1, PEP2, PEP3, and PEP4), and a negative control. The X-aptamers were biotinylated and immobilized onto streptavidin-coated plates and were utilized as detection molecules. Higher numbers represent strong binding. The negative control peptide is a random peptide to measure the amount of binding that occurs to a random amino acid sequence.
# [3] = target: T2, SNAP25 Peptide 3 (PEP3; only a fragment …)
# Text: as §1
binder,measurement,setting,value
B1,binding signal,[1],131 ELISA signal
B2,binding signal,[2],220 ELISA signal
B3,binding signal,[2],289 ELISA signal
B4,binding signal,[1],37 ELISA signal
B5,binding signal,[1],186 ELISA signal
B6,binding signal,[2],188 ELISA signal
B7,binding signal,[2],241 ELISA signal
B8,binding signal,[2],160 ELISA signal
B9,binding signal,[1],67 ELISA signal
B10,binding signal,[2],477 ELISA signal
B11,binding signal,[1],18 ELISA signal
B12,binding signal,[2],293 ELISA signal
B13,binding signal,[3],95 ELISA signal
B14,binding signal,[1],257 ELISA signal
B15,binding signal,[1],18 ELISA signal
B16,binding signal,[2],200 ELISA signal
B17,binding signal,[1],76 ELISA signal
B18,binding signal,[2],188 ELISA signal
B19,binding signal,[2],645 ELISA signal
B20,binding signal,[2],357 ELISA signal
B21,binding signal,[2],2240 ELISA signal
B22,binding signal,[1],37 ELISA signal
B23,binding signal,[2],200 ELISA signal
B24,binding signal,[1],24 ELISA signal
B25,binding signal,[1],61 ELISA signal
B26,binding signal,[1],105 ELISA signal
B27,binding signal,[2],677 ELISA signal
B28,binding signal,[2],293 ELISA signal
B29,binding signal,[1],170 ELISA signal
B30,binding signal,[2],200 ELISA signal
B31,binding signal,[1],94 ELISA signal
B32,binding signal,[2],429 ELISA signal
B33,binding signal,[1],57 ELISA signal
B34,binding signal,[2],742 ELISA signal
B35,binding signal,[3],96 ELISA signal
B36,binding signal,[1],17 ELISA signal
B37,binding signal,[1],18 ELISA signal
B38,binding signal,[3],81 ELISA signal
B39,binding signal,[2],641 ELISA signal
B40,binding signal,[1],202 ELISA signal
B41,binding signal,[2],212 ELISA signal
B42,binding signal,[1],208 ELISA signal
B43,binding signal,[1],35 ELISA signal
B44,binding signal,[1],85 ELISA signal
B45,binding signal,[2],184 ELISA signal
B46,binding signal,[1],18 ELISA signal
B47,binding signal,[2],337 ELISA signal
B48,binding signal,[2],168 ELISA signal
